These results are taken from patent publication US20050084493A1 (Amgen, published 2005).

Assay [1] deals with IL-1 receptor type I (IL-1R1) on SW982 synoviocytes / HUVEC (human) (UniProt P14778). Kind of assay: cell-based or functional assay.
The target in assay [2] is T1, IL-1β (Homo sapiens (Human), UniProt P01584 117-269).
T1 construct: also called IL-1 beta; IL-1b
Kind of assay: ECL (Origen) competition of complex formation: antibody titrated against biotinylated sIL-1 receptor (1 nM), IL-1β (1 nM), ruthenium-tagged IL-1RacP (5 nM).
Experimental: The resulting complexes were captured using magnetic streptavidin-coated beads and an Origen® Analyzer (IGEN Inc.) measured an ECL signal proportional to the ruthenium tag captured in the complex to evaluate competition of complex formation.
After a 1-hour incubation, the resulting complexes were captured using magnetic streptavidin-coated beads. Competition of complex formation was evaluated using an Origen® Analyzer (IGEN Inc.), which measures an ECL signal proportional to the ruthenium tag captured in the complex.

Assay [3] concerns the target T1, IL-1β. Kind of assay: cell-based or functional assay.

Sequence of IL-1 receptor type I (IL-1R1) on SW982 synoviocytes / HUVEC (human) (P14778 18-569): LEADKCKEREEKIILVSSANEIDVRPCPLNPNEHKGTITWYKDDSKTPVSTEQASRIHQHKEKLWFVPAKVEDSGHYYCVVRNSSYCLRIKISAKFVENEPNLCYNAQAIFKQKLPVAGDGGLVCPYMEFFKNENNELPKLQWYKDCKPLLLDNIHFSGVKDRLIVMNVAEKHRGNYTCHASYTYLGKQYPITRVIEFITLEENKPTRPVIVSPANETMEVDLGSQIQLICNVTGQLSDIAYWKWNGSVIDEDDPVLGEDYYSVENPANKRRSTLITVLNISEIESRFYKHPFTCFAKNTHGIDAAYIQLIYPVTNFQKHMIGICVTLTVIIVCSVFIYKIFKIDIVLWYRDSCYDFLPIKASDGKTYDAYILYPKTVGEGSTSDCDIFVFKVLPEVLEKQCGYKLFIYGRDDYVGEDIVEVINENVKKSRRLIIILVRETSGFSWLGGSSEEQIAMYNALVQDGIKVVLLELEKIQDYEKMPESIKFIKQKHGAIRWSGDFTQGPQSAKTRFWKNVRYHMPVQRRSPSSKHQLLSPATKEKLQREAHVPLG

The molecule “IL-1ra (from UniProt P18510 26-177) (ligand)” had an IC50 (pM), IL-1β-dependent GROα production in HUVEC in assay [1] of 2930 pM.

B1: MAB201 murine monoclonal anti-IL-1β antibody (R&D Systems) (antibody, V domains shown)
VH: QVTLKESGPGILKPSQTLSLTCSFSGFSLSTSGMGVGWIRQPSGKGLEWLAHIWWDGDESYNPSLKTRLTISKNTSRNQVFLKITTVDTVDTATYFCARNRYDPPWFVDWGQGTLVTVSS
VL: DIQMTQTTSSLSASLGDRVTISCRASQDISNYLSWYQQKPDGTVKLLIYYTSKLHSGVPSRFSGSGSGTDYFLTISNLEQEDIATYFCLQGKMLPWTFGGGTKLEIK
notes: Commercial murine monoclonal; light chain is kappa; also called Mouse; mouse monoclonal MAB201
Molecule B1 yielded an IC50 with IL-1β [2] of 0.476 nM. Further, in the assay with IL-1β [3], the “IC50 (pM), IL-1β-dependent GROα production in HUVEC” value is 171 pM.

One may read the IC50 as the point on the concentration scale where inhibition reaches its midpoint. High values mean weaker potency in that assay, low ones greater potency in that assay.
